Residue numbers refer to the chain shown, from its start.
T1: Human HEVM recombinant protein (Sino Biological, 10334-H02H) (human, UniProt Q92956 39-202)
T1 construct: construct known only by catalogue number; also called HVEM; human HVEM
T1 sequence (looked up): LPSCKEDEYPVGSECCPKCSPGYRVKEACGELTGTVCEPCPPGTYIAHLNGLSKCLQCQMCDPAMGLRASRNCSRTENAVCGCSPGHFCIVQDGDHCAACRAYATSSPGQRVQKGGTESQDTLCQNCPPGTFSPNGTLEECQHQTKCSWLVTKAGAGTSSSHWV

T2: His-tagged human HVEM (human, UniProt Q92956 39-202, limits assumed)
T2 construct: Analyte of the BLI assay, 200 nM in PBS; not shown: His tag
T2 sequence (looked up): T1 sequence (looked up)

T3: cynomolgus monkey HVEM (cynomolgus monkey, UniProt A0A2K5W0R1 39-203)
T3 sequence: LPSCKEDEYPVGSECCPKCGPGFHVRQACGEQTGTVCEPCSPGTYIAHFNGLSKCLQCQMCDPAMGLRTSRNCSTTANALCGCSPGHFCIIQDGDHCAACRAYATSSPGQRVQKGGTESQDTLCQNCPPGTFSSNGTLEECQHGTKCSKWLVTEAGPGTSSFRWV

T4: murine HVEM (murine, UniProt Q80WM9 39-206, limits assumed)
T4 construct: also called Mouse
T4 sequence (looked up): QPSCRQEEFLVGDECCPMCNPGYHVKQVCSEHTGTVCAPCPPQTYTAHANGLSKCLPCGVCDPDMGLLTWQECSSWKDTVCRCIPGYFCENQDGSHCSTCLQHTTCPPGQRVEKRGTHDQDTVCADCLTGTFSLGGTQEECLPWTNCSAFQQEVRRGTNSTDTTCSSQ

T5: human HVEM (human, UniProt Q92956 39-202, limits assumed)
T5 sequence (looked up): T1 sequence (looked up)

B1: Ab_073 (H5S20-9A9A) (antibody, V domains shown)
VH: EVQLQQSGADLVKPGASVKLSCTASGFNIRDTYMHWVNQRPEQGLEWIGRIDPANGNTKYAPKFQGRATITADTSSNTAYLHLSSLTSEDTAVYYCAGYGNSPWFAYWGQGTLVTVSA
VL: DVLMTQTPLSLPVNLGDQASISCRSSQSIVHSNGNTYLEWYLQKPGQSPKLLIYKVSNRFSGVPDRFSGSGSGTDFTLKISRVEAEDLGVYYCFQGSHVPLTFGAGTKLELK
notes: also called Ab_73
B2: Ab_058 (H5S19-6A8A) (antibody, V domains shown)
VH: EVQLVESGGGLVKPGGSLKLSCAASGFTFNIYTMSWVRQSPEMRLEWVAEISSGGSHTYYPDTVTGRFTISRDNAKNTLYLEMSSLRSEDTAIYYCARGGSLFDYWGQGTTLTVSS
VL: DVQITQSPSYLAASPGETITINCRTSKNISKYLAWYQEKPGKTNKLLIYSGSTLQSGIPSRFSGSGSGTDFTLTISSLEPEDFVMYHCQQHNEYPWTFGGGTKLEIK
notes: also called Ab_58
B3: Ab_034 (H5S15-16A11B) (antibody, V domains shown)
VH: DVQLVESGGGLVQPGGSRKLSCAASGFTFSSFGMHWVRQAPEKGLEWVAHISSGSSTIYYADTVKGRFTISRDNPKNTLFLQMTSLRSEDTAMYYCARGAYGNFAWFPYWGQGTLVTVSA
VL: DVVMTQTPLSLSVSLGDQASISCRSSQSLVHSNGNTYLHWYLQKPGQSPKLLIYKVSNRFSGVPDRFSGSGSGTDFTLKISRVEAEDLGVYFCSQSTHVPTFGSGTKLEIK
notes: also called Ab_34
B4: Ab_035 (H5S15-9A10A) (antibody, V domains shown)
VH: B3 VH with S31D
VL: B3 VL with S12P, S32T, K50R, S70G
notes: also called Ab_35
B5: Ab_008 (H5S14-11A10A) (antibody, V domains shown)
VH: EVKLVESGGGLVKPGGSLRLSCAASGFTFSSFAMSWIRQTPEKGLEWVASITTGGSSYSPDSLKGRFTISRDNVRNIVYLQMSSLRSEDTAMYACARGGGGNYFWFAYWGQGTLVTVSA
VL: DVVMTQTPLSLPVSLGDQASISCRSSQSLVHSNGNTYLHWYLQKPGQSPKLLIYKVSNRFSGVPDRFSGSGSGTDFTLKISRVEAEDLGVYFCSQSIHVPFTFGSGTKLEIK
notes: also called Ab_8
B6: Ab_053 (H5S19-20A20A) (antibody, V domains shown)
VH: QVQLKESGPGLVAPSQSLSITCTVSGFSLTSYGVHWVRQPPGKGLEWLGVIWAGGITNYNSALMSRLSISKDNSKSQVFLKMNSLQTDDTAMYYCARDWERDSSGPFVYWGQGTLVTVSA
VL: DIQMTQTTSSLSASLGDRVTISCTASQGISNYLNWYQQKPDGTVKLLIYYTSTLHSGVPSRFSGSGSGTDYSLTISNLEPEDIATYYCQQYFKLPWTFGGGTKLEIK
notes: also called Ab_53
B7: Ab_052 (H5S19-18A17B) (antibody, V domains shown)
VH: B6 VH with S31I, T57I, T87S, V108A
VL: B6 VL with T24S, T53S, S63R, F92S
notes: also called Ab_52
B8: Ab_077 (H5S20-31A16B) (antibody, V domains shown)
VH: EVQLQQSGAELVRSGASVKLSCTTSGFNIKDYYMHWVKQRPEQGLEWIGWIDPENGDTEYAPKFQGKATMTADTSSNTAYLQLSSLTSEDTAVYYCNSRTLGYWGQGTLVTVSA
VL: QIVLTQSPALMSASPGEKVTMTCSASSSVSFIYWYQQKPRSSPKPWIYLTSNLASGVPARFSGSGSGTSYSLTISSMEAEDAATYYCQQWSSNPLTFGAGTKLEL
notes: also called Ab_77
B9: Ab_055 (H5S19-1A1A) (antibody, V domains shown)
VH: DVQLQESGPGLVKPSQSLSLTCTVTGYSITSDYAWNWIRQFPGNKLEWMGYIAYSGGTSYSPSLKSRISITRDTSKNQFFLQLNSVTTEDTATYYCVYFKYGGAFAYWGQGTLVTVSA
VL: NIVLTQSPASLAVSLGQRATISCRASESVDSYGNSLMHWYQQKPGQPPKLLIYLASNLESGVPARFSGSGSRTDFTLTIDPVEADDAATYYCQQNNEDPPTFGGGTKLEI
notes: also called Ab_55
B10: Ab_004 (H5S14-24A4A) (antibody, V domains shown)
VH: EVQLQQSGPELVKPGTSVKISCKTSGYTITEYTMHWVKQSHGKSLEWIGGINPNNGGTINNQKFKDKATLTVDMSSSTAYMELRSLTSEDSAVYYCAGSVVDRYWYFDVWGAGTTVTVSS
VL: QIVLTQSPAIMSASPGEKVTISCSASSSVSYMYWYQQKPGSSPKPWIYRTSNLASGVPARFSGSGSGTSYSLTISSMEAEDAATYYCQQYHSYPLTFGAGTKLELK
notes: also called Ab_4
B11: Ab_005 (H5S14-4A4A) (antibody, V domains shown)
VH: B10 VH with T16A, I29F, N54Y, D66G
VL: B10 VL
notes: also called Ab_5
B12: Ab_081 (H5S20-44A32A) (antibody, V domains shown)
VH: EVKLVESGGGLVQPGGSLKLSCAASGFTFSSYTMSWVRQTPEKRLEWVAYISNGGGSTYYPDTVKGRFTISRDNAKNTLYLQMSSLKSEDTAMYYCARHRGYGSSYNYAMDYWGQGTSVTVSS
VL: DIVMTQSQKFMSTSVGDRVSVTCKASQNVGTNVAWYQQKPGQSPKALIYSASYRYSGVPDRFTGSGSGTDFTLTISNVQSEDLAEYFCQQYNSYPFTFGSGTKLEIK
notes: also called Ab_81
B13: Ab_082 (H5S20-55A36A) (antibody, V domains shown)
VH: EVKLVESGGGLVQPGGSLKLSCAASGFTFSSYTMSWVRQTPEKRLEWVADISNGGGSTYYPDTVKGRFTISRDNAKNTLYLQMSSLKSEDTAMYYCARHRGYGNYVYAMDYWGQGTSVTVSS
VL: B12 VL with F96L, S100G
notes: also called Ab_82
B14: Ab_085 (H5S20-53A41A) (antibody, V domains shown)
VH: EVQLVESGGGLVKPGGSLKLSCAASGFTFSSYAMSWVRQSPEKRLEWVAEISSGGSYTYYPDTVTGRFTISRDNAKNTLYLEMSSLRSEDTAMYYCAREGLRRDYYALDYWGQGTSVTVSS
VL: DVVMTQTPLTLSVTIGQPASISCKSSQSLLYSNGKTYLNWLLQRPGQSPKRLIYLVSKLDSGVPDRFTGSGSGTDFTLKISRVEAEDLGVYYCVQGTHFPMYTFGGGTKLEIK
notes: also called Ab_85
B15: Ab_076 (H5S20-26A22A) (antibody, V domains shown)
VH: QIQLVQSGPELKKPGETVKISCRASGYTFTNYGMNWVKQAPGKGLKWMGWINTYTGEPTYADDFKGRFAFSLETSASSAYLQINNLKNEDMATYFCARSLYYGDNYEAYWGQGTLVTVSA
VL: QIVLTQSPAIMSASLGEEITLTCSASSSVSYMHWYQQKSGSSPKLLIYTTSNLASGVPSRFSGSGSGTFYSLTISSVEAEDAADYYCHQWSSYTWTFGGGTKLEIK
notes: also called Ab_76

target: T1, Human HEVM recombinant protein (Sino …); experiment: competition ELISA, competitor BTLA-His
Protocol: The competitive activity of HVEM antibody to BTLA or LIGHT was evaluated with ELISA-based competitive assay. Briefly Human HEVM recombinant protein (Sino Biological, 10334-H02H, 4 ug/ml, 100 ul/well) was coated to ELISA plate (Thermo Scientific, 469949, 4C overnight). A pre-mixture of HVEM antibody clone with seral dilution and 400 nM BTLA-His (R&D systems, 9235-BT-050) or LIGHT-His (SinoBiological, 10386-H07H) recombinant protein was made and added to the ELISA plate after blocking with 3% BSA (200 ul/well, RT 2 Hr) for 1 Hr at RT. The serial dilutions of HVEM antibody clone involve 7 different concentrations, with a 3-fold dilution performed start from 100 nM for BTLA or 325 nM for LIGHT competitive assay. The concentration was the final concentration. Plate was washed with PBST; diluted HRP-anti-His (Biolegend, 652504, 1:1000) with PBS containing 5% FBS was added 100 ul per well for 1 Hr at RT. TMB substrate (KPL, 52-00-00) 100 ul per well after washing and incubate at room temperature for 15 minutes; then stop the development by adding 100 ul stop solution (KPL, 50-85-06). Plate was read at 450 nm. The IC50 was calculated using GraphPad Prism software (GraphPad Software, Inc. San Diego, CA, USA).

Row | Binder | IC50 [nM]
1 | B1 | 3.2
2 | B2 | 1.3
3 | B3 | 1.3
4 | B4 | 1.4
5 | B5 | 1.9

target: T2, His-tagged human HVEM; experiment: BLI OctetRed96, mAb captured, 200 nM His-HVEM
Protocol: Binding of antibodies to HVEM may also be determined by bio-layer interferometry (BLI) on an OctetRed96@ system (Sartorius). (See http://www.fortebio.com/bli_technology.html for general description of a BLI assay.) For this experiment, murine anti-human HVEM antibodies were captured from culture supernatant using anti-mouse IgG Fc capture and immobilized to dip and read biosensors. Sensors were then dipped into a solution of 200 nM His-tagged human HVEM in phosphate-buffered saline (PBS). Probes were dipped into PBS assay buffer and the dissociation rate (koff) was measured. The association rate (kₒₙ) and affinity (KD) were determined by curve fitting analysis.

Row | Binder | Kd [nM] | koff [s⁻¹] | kon [M⁻¹ s⁻¹]
6 | B6 | 103 | 0.00439 | 42700
7 | B7 | 90.9 | 0.00734 | 80700
8 | B8 | 12400 | 1.08 | 86600
9 | B1 | 370 | 0.109 | 294000
10 | B2 | 2.67 | 0.00125 | 469000
11 | B9 | 544 | 0.0164 | 30200
12 | B3 | 8.67 | 0.00235 | 270000
13 | B4 | 6.58 | 0.00235 | 357000
14 | B10 | – | – | 769
15 | B11 | – | – | 2240
16 | B5 | 4.8 | 0.00231 | 482000

target: T3, cynomolgus monkey HVEM; experiment: ELISA

Row | Binder | ELISA signal
17 | B12 | 0.076
18 | B13 | 0.06
19 | B6 | 2.1
20 | B7 | 2.32
21 | B8 | 0.079
22 | B1 | 0.062
23 | B2 | 0.064
24 | B9 | 2.21
25 | B14 | 0.061
26 | B10 | 0.062
27 | B11 | 0.063
28 | B5 | 2.94
29 | B15 | 2.96

target: T4, murine HVEM; experiment: ELISA

Row | Binder | ELISA signal
30 | B12 | 0.048
31 | B13 | 0.044
32 | B6 | 0.042
33 | B7 | 0.042
34 | B8 | 0.043
35 | B1 | 0.045
36 | B2 | 0.043
37 | B9 | 0.042
38 | B3 | 0.045
39 | B4 | 0.045
40 | B14 | 0.046
41 | B10 | 0.044
42 | B11 | 0.048
43 | B5 | 0.077
44 | B15 | 0.044

target: T5, human HVEM; experiment: ELISA

Row | Binder | ELISA signal
45 | B12 | 1.59
46 | B13 | 0.844
47 | B6 | 2.89
48 | B7 | 2.88
49 | B8 | 0.147
50 | B1 | 3.24
51 | B2 | 3.16
52 | B9 | 2.95
53 | B3 | 3.19
54 | B4 | 3.2
55 | B14 | 0.049
56 | B10 | 2.42
57 | B11 | 2.44
58 | B5 | 3.4
59 | B15 | 2.89
